The text below walks through data of patent WO2017208210A1.

For assay [1], the target named is T1, recombinant hMCAM-His (human) (UniProt P43121).
T1 sequence: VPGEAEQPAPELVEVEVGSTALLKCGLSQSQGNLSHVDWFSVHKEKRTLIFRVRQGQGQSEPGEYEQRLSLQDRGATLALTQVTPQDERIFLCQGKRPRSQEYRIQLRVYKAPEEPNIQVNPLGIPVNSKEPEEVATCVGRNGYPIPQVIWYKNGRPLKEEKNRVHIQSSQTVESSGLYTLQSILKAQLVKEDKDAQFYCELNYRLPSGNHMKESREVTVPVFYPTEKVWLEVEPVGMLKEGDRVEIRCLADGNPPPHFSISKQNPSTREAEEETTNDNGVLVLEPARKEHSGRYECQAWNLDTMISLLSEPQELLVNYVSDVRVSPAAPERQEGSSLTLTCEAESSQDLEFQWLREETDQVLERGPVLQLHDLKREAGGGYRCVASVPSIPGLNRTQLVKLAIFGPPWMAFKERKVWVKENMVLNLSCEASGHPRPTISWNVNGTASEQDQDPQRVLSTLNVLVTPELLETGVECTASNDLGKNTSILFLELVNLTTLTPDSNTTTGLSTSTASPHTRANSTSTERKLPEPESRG
Nature of the assay: competitive ELISA on hMCAM-His against biotinylated rodent or chimeric antibody. On the technique in general: An ELISA detects its analyte on a solid surface through an enzyme-linked reagent.

The target in assay [2] is T2, human MCAM expressed on CHO cells transfected with the full length human MCAM gene (human) (UniProt P43121).
T2 sequence: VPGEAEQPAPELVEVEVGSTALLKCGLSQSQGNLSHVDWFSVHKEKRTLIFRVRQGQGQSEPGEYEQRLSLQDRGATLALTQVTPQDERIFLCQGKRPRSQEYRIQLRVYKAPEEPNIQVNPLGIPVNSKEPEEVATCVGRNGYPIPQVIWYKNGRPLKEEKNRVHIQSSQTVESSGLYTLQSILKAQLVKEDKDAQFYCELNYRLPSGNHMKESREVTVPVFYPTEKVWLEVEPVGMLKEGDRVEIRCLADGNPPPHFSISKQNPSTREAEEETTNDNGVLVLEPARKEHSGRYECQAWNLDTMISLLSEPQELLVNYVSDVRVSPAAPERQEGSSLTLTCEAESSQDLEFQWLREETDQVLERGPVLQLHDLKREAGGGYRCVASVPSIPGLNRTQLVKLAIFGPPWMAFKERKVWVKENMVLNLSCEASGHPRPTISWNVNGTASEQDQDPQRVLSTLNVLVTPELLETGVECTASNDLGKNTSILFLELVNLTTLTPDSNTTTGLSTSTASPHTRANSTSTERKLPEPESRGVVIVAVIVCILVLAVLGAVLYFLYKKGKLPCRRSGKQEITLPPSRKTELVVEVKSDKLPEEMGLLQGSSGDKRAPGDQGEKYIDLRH
Nature of the assay: laminin/FACS assay, blocking of laminin 411 binding to hMCAM expressing CHO cells. A general note: Flow cytometry measures light scatter and fluorescence of single cells or particles in a stream.

Assay [3] concerns the target chimpanzee MCAM on circulating T cells (chimpanzee). Briefly: FACS, chimpanzee whole blood in vitro.

Changes are numbered by the printed parent chain.

B1: humanized 2120 antibody VH5VL3 (G-A N-deamidation mutant VH/conservative VL) (antibody, V domains shown)
VH: QVTLKESGPVLVKPTETLTLTCTVSGFSLTSNAVSWVRQPPGKALEWIAAISSGGTTYYNSAFKSRLTISRDTSKSQVVLTMTNMDPVDTATYYCARRYGYGWYFDFWGQGTLVTVSS
VL: DIQMTQSPSSLSASVGDRVTINCKASQNIYNSLAWYQQKPGKAPKVLIFNANSLQTGIPSRFSGSGSGTDFTLTISSLQPEDFATYYCQQFYSGYTFGQGTKLEIK
As for B1, the fold reduction in apparent affinity against the rodent parent in assay [1] was below 2 x. In assay [2], the fold reduction in potency (laminin blocking) against the rodent parent is below 2 x.

B2: PRX003 (humanized anti-MCAM antibody, human IgG1 kappa isotype) (antibody, V domains shown)
VH: B1 VH with Q1E
VL: B1 VL
B2 had a concentration required to saturate MCAM in assay [3] of 1 to 3 µg/mL.
